Test results taken from article PMC8459920 (Molecular & Cellular Proteomics : MCP, 2021).

Target: T1, Cullin-5 (Cul5) (UniProt Q93034 1-780)
T1 construct: also called full-length Cul5
T1 sequence: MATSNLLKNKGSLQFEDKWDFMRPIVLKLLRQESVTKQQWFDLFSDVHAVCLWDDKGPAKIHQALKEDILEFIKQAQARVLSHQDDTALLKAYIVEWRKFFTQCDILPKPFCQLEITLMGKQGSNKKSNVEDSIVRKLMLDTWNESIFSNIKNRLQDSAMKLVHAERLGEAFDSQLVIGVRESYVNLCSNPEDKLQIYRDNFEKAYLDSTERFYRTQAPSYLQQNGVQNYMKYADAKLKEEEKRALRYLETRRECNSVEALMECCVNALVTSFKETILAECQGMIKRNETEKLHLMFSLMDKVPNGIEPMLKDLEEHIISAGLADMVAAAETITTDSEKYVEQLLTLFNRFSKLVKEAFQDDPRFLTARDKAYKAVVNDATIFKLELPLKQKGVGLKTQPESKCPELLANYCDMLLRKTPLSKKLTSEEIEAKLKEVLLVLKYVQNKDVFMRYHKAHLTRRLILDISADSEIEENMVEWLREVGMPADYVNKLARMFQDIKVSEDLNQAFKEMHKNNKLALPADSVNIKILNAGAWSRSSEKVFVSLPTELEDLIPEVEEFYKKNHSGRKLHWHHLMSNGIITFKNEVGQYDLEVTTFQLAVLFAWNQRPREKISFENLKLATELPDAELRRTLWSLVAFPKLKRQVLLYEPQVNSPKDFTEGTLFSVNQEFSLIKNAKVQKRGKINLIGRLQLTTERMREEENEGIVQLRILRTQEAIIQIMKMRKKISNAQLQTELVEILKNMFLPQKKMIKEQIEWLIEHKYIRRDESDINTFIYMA
Assay: cross-linking; DSSO cross-linking with LC-MS3 (XL-MS) of reconstituted complexes at ~5 uM in 20 mM HEPES pH 7.5, 300 mM NaCl, 10% glycerol; 37 °C, 30 min; cross-linked SDS-PAGE bands digested in gel with trypsin or chymotrypsin; data of the four complexes pooled
Settings: both partners purified

B1: Rbx2 (natural protein)
chain: MADVEDGEETCALASHSGSSGSKSGGDKMFSLKKWNAVAMWSWDVECDTCAICRVQVMDACLRCQAENKQEDCVVVWGECNHSFHNCCMSLWVKQNNRCPLCQQDWVVQRIGK
notes: also called E2 docking protein Rbx2
  binding result: binds
